Laboratory results published in publication PMC5025654.

How the values were obtained:
[1] = molecular target: TGF-β1 of the porcine enamel matrix (porcine (endogenous in porcine enamel))
[2] = molecular target: TGF-β1 of the porcine enamel matrix (porcine (endogenous in porcine enamel)); test: dynamic light scattering; multi-angle DLS, 25.0 °C, Tris; original (TGF-β1-bound) P103 amelogenin at c > 6.0 mg mL^-1 (Line 1), D extrapolated to D0; RH 3.21 nm, Mw from an empirical RH-Mw relation; complex formed in vivo
[3] = molecular target: P103 amelogenin (porcine); test: dynamic light scattering; multi-angle DLS, 25.0 °C, Tris; D extrapolated to zero concentration (D0), RH by Stokes-Einstein, Mw from an empirical RH-Mw relation; P103-1 and P103-2 amelogenins and original P103 amelogenin at c < 4.0 mg mL^-1; RH 2.57 nm
[4] = molecular target: TGF-β1 of the porcine enamel matrix (porcine (endogenous in porcine enamel)); test: co-elution on RP-HPLC, TGF-β1 quantified by ALP-inducing activity of HPDL cells; amelogenins as purified from enamel (before the in vitro binding); ng of TGF-β1 per mg of amelogenin calculated from standard CF-hTGF-β1 (0.3 ng mL^-1), after dilution correction; complexes formed in vivo
[5] = molecular target: carrier-free recombinant human TGF-β1 (human); test: in vitro binding, RP-HPLC, TGF-β1 quantified by ALP-inducing activity of HPDL cells; purified amelogenin mixed with CF-hTGF-β1 or rh-latent TGF-β1, fractions from RP-HPLC tested in the ALP-HPDL system; ng per mg of amelogenin calculated from standard CF-hTGF-β1 (0.3 ng mL^-1), after dilution correction; details in the Supplementary Methods
[6] = molecular target: TGFBR1 of porcine enamel organ epithelia (porcine (endogenous in enamel organ epithelia)) (UniProt Q5CD18)
Sequence of TGFBR1 of porcine enamel organ epithelia (porcine (endogenous in enamel organ epithelia)) (Q5CD18 30-503): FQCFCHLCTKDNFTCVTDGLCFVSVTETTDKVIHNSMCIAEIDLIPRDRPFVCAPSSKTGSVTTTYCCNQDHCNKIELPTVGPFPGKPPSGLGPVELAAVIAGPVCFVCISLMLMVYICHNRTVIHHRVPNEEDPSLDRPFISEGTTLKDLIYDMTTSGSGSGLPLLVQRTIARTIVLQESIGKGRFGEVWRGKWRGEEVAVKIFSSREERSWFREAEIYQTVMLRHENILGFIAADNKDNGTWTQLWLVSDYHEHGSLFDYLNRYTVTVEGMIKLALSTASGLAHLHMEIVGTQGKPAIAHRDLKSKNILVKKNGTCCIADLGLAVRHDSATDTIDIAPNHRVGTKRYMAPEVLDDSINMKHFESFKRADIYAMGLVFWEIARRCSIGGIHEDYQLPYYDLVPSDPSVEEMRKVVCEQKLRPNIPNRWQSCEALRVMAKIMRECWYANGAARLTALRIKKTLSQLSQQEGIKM

Sequence of TGF-β1 of the porcine enamel matrix (porcine (endogenous in porcine enamel)) (P07200 30-390): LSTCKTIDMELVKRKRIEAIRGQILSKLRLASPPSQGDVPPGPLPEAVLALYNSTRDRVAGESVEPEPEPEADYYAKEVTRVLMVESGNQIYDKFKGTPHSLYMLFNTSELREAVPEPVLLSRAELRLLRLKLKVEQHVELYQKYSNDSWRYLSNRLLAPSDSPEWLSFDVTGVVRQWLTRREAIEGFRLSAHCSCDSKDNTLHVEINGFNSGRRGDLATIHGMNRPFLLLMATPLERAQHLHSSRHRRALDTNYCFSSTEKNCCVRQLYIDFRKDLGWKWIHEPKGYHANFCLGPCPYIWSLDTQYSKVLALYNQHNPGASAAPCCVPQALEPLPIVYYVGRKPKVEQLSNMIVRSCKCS
Sequence of P103 amelogenin-TGF-β1 complex (P07200 whole entry, looked up, one chain of several): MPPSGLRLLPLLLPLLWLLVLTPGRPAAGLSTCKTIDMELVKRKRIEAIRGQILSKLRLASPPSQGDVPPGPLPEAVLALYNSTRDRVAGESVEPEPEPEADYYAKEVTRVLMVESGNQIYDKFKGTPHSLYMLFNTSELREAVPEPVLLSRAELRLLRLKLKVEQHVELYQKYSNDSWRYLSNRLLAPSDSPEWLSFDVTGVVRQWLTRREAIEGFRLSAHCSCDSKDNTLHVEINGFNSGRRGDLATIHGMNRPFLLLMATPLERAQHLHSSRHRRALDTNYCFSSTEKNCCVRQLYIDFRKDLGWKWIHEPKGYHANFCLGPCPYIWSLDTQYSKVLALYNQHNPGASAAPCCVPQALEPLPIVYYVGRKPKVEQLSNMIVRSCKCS

Substance	ALP-inducing activity of HPDL cells left after digestion of the P103 amelogenin-TGF-β1 complex with pKLK4 for 20 h, compared to the level before digestion (CF-hTGF-β1 alone: 8%) [1]	stoichiometry N (amelogenin trimer per TGF-β homodimer) [2]	stoichiometry N [3]	original TGF-β1, ng against 1 mg of amelogenin [4]	bound TGF-β1, ng against 1 mg of amelogenin [5]	TR-FRET TGFBR1 kinase assay (phosphorylation of ULight-Topo IIα peptide, 5 mM ATP), FRET signal after 12 h with the complex added, against the control without addition (% higher than the control) [6]
P103 amelogenin (domain or fragment)	70%	1	3	0.797 ng	1.08 ng	–
P103 amelogenin-TGF-β1 complex (from UniProt P07200 279-390)	–	–	–	–	–	5
P148 amelogenin (domain or fragment)	–	–	–	0.263 ng	1.06 ng	–
P162 amelogenin (domain or fragment)	–	–	–	0.201 ng	1.17 ng	–
